Patent US20180037651A1 (published 2018)
Values belong to the binder of their own block, whether it stands above or below them.

Target: T1, human GPRC5D (UniProt Q9NZD1 1-345)
T1 chain: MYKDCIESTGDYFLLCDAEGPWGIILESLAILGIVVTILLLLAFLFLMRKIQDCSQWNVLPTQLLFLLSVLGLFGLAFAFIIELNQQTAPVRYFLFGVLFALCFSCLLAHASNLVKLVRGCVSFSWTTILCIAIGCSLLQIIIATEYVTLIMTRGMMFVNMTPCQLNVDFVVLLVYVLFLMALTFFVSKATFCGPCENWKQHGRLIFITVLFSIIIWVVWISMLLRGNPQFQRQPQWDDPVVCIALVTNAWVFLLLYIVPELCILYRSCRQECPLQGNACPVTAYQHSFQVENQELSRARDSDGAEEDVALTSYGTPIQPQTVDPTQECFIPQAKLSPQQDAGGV
Assay: FACS cell binding; MM.1R cells

EC50: 1.67 nM
B1: GC5B603 (antibody, V domains shown)
VH: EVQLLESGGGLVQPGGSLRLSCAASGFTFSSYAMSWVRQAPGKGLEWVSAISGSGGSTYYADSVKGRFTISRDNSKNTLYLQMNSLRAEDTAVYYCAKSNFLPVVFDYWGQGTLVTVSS
VL: EIVLTQSPATLSLSPGERATLSCRASQSVRKSLAWYQQKPGQAPRLLIYTASNRATGIPARFSGSGSGTDFTLTISSLEPEDFAVYYCQQYFRAPITFGQGTKVEIKK

EC50: 0.1 nM
B2: GC5B599 (antibody, V domains shown)
VH: EVQLVQSGAEVKKPGESLKISCKGSGYSFTSYFIGWVRQMPGKGLEWMGIIYPGKSDTRYSPSFQGQVTISADKSISTAYLQWSSLKASDTAMYYCARVYSFGGRHKALFDYWGQGTLVTVSS
VL: EIVLTQSPATLSLSPGERATLSCRASQSVSSYLAWYQQKPGQAPRLLIYDASNRATGIPARFSGSGSGTDFTLTISSLEPEDFAVYYCQQRSNWPLTFGQGTKVEIK
